US20090093061A1

Tests used:
Experiment in all cases: GroEL-490 bead column capture of denatured serum, ATP elution, LC-MS-MS
[1] = target: 3-hydroxyanthranilate 3,4-dioxygenase (Homo sapiens) (UniProt P46952)
[2] = target: 3-phosphoinositide dependent protein kinase-1 (Homo sapiens) (UniProt O15530)
[3] = target: ATPase, H+ transporting, lysosomal V0 subunit a isoform 2 (Homo sapiens) (UniProt Q9Y487)
KIAA0317 (Homo sapiens) = KIAA0317 (Homo sapiens) (UniProt O15033)
[4] = target: KIAA1330 protein (Homo sapiens) (UniProt Q96L96)
[5] = target: MAP/ERK kinase kinase 4 isoform a (Homo sapiens) (UniProt Q9Y6R4)
[6] = target: RAN-binding protein 2-like 1 isoform 1 (Homo sapiens) (UniProt Q99666)
[7] = target: START domain containing 9 (Homo sapiens) (UniProt Q9P2P6)
[8] = target: UDP glycosyltransferase 1 family, polypeptide A9 (Homo sapiens) (UniProt O60656)
[9] = target: UDP glycosyltransferase 2 family, polypeptide B7 (Homo sapiens) (UniProt P16662)
[10] = target: WD repeat membrane protein PWDMP (Homo sapiens) (UniProt Q8NEZ3)
[11] = target: alpha 2 type XI collagen isoform 3 preproprotein (Homo sapiens) (UniProt P13942)
[12] = target: ankyrin repeat domain 26 (Homo sapiens) (UniProt Q9UPS8)
[13] = target: ceruloplasmin (ferroxidase) (Homo sapiens) (UniProt P00450)
Chain of ceruloplasmin (ferroxidase) (Homo sapiens) (P00450 20-1065 limits assumed): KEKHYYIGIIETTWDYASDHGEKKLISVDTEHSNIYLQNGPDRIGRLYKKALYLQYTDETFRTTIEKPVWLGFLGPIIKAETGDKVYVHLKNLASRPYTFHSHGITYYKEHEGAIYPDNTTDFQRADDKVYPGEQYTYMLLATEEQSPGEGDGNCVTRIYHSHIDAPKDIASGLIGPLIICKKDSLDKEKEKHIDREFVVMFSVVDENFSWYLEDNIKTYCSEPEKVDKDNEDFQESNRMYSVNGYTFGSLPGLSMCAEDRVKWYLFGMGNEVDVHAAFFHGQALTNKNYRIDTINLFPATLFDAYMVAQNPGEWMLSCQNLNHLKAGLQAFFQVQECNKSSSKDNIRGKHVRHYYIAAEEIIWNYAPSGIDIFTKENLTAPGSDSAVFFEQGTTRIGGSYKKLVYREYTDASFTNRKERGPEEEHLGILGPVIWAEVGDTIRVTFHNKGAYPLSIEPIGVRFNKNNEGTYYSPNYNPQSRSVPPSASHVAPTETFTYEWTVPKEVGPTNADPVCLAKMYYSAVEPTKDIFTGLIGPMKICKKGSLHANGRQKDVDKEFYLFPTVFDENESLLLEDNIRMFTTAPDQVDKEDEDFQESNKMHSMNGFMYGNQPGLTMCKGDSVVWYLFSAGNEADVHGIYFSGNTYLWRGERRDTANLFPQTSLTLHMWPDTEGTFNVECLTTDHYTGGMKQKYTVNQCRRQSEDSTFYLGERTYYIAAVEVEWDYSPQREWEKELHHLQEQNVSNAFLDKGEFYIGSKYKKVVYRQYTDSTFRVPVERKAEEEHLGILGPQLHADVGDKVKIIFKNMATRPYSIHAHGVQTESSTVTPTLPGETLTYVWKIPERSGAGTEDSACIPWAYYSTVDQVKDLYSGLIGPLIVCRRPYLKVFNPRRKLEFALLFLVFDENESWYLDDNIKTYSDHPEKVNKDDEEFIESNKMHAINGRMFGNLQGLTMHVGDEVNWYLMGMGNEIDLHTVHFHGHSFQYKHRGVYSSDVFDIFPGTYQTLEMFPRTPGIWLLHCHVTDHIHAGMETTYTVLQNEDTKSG

[14] = target: complement component 4B proprotein (Homo sapiens) (UniProt P0C0L5)
[15] = target: dynein, cytoplasmic, heavy polypeptide 2 (Homo sapiens) (UniProt Q8NCM8)
[16] = target: hypothetical protein FLJ21439 (Homo sapiens)
[17] = target: hypothetical protein FLJ22344 (Homo sapiens)
[18] = target: hypothetical protein FLJ35834 (Homo sapiens)
[19] = target: insulin-like 6 precursor (Homo sapiens) (UniProt Q9Y581)
[20] = target: inter-alpha (globulin) inhibitor, H2 polypeptide (Homo sapiens) (UniProt P19823)
keratin 1 (Homo sapiens) = keratin 1 (Homo sapiens) (UniProt P04264)
[21] = target: myocardin-related transcription factor B (Homo sapiens) (UniProt Q9ULH7)
[22] = target: odd Oz/Ten-m homolog 3 (Homo sapiens) (UniProt Q9P273)
Chain of odd Oz/Ten-m homolog 3 (Homo sapiens) (Q9P273 whole entry, canonical isoform): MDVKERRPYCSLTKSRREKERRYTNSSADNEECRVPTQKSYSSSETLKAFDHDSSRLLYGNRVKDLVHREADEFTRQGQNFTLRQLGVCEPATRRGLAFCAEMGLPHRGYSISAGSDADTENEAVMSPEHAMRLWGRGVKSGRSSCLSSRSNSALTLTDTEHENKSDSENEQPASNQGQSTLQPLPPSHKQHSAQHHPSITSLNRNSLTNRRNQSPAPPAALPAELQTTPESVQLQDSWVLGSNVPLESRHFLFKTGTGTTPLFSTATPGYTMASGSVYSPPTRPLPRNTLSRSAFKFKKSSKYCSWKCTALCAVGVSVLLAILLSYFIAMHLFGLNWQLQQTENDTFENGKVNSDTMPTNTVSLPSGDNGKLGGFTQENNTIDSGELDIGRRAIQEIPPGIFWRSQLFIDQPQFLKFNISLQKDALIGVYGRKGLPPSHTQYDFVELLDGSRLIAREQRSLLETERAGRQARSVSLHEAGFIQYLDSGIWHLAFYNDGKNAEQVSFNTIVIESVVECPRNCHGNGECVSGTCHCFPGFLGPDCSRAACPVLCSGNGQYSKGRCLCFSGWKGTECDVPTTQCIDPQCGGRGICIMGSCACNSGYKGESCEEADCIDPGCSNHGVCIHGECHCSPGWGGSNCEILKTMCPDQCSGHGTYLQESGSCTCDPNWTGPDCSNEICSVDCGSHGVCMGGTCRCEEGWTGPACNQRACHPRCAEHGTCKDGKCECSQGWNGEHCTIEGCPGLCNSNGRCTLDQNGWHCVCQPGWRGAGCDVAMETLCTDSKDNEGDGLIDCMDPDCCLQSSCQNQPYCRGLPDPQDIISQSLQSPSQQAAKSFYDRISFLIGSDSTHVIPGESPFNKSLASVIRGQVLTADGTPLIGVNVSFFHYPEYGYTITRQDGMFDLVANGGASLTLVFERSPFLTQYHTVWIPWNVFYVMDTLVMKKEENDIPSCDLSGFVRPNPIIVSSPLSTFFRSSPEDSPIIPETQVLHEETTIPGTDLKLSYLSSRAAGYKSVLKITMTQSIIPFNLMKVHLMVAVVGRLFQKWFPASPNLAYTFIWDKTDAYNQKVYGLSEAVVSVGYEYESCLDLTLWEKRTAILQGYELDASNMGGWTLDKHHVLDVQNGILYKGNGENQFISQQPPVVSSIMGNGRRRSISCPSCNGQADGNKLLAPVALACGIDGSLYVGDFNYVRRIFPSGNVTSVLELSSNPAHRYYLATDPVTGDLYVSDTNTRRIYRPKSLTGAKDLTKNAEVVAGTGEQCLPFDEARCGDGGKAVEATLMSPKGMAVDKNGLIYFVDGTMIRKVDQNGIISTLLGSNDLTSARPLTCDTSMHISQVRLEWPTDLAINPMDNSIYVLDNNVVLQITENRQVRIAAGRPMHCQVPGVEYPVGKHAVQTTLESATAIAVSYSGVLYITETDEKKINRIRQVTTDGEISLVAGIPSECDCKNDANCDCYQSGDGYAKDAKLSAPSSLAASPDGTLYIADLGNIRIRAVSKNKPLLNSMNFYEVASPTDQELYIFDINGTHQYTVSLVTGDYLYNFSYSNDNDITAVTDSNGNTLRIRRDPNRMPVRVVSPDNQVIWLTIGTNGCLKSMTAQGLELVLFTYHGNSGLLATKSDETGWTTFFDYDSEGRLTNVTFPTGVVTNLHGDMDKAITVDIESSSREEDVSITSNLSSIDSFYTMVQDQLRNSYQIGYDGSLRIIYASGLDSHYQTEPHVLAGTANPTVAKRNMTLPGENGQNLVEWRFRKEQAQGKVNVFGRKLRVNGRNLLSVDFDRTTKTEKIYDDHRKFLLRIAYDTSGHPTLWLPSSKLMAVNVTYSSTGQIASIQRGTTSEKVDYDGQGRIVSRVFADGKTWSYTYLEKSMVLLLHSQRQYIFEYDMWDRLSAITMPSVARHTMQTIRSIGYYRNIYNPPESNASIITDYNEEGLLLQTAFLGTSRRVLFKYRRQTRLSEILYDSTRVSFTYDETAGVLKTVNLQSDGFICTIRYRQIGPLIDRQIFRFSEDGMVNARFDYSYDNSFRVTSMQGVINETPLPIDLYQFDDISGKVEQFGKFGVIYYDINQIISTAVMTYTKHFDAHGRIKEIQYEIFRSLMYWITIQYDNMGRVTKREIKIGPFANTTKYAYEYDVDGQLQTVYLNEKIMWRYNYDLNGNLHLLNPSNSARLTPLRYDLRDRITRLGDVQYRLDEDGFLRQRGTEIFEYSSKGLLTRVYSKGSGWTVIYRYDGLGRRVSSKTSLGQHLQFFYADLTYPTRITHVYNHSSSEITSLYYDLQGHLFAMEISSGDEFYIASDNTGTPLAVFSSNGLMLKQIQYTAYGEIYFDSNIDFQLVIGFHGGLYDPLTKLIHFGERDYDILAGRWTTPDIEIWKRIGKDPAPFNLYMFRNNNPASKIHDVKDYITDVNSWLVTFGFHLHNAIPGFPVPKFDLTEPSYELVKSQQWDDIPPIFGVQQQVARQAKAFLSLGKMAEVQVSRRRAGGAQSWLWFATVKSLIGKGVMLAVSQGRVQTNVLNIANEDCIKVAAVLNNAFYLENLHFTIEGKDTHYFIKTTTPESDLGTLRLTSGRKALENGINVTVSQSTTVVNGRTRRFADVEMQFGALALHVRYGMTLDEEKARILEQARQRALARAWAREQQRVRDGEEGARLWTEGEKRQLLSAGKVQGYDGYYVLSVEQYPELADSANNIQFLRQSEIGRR

[23] = target: p47 protein isoform a (Homo sapiens) (UniProt Q9UNZ2)
Chain of p47 protein isoform a (Homo sapiens) (Q9UNZ2 whole entry, canonical isoform): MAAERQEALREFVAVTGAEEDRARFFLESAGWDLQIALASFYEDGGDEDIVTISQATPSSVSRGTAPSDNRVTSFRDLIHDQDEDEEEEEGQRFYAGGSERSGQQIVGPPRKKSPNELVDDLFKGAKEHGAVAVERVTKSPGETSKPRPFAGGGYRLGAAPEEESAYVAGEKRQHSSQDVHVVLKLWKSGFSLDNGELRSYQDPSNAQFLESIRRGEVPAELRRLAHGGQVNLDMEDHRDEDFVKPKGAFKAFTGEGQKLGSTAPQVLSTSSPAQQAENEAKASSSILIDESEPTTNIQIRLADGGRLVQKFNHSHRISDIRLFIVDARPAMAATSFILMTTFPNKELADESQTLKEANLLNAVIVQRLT

[24] = target: phosphoinositol 3-phosphate-binding protein-2 (Homo sapiens) (UniProt Q9HAU0)
[25] = target: serine (or cysteine) proteinase inhibitor, clade A (alpha-1 antiproteinase, antitrypsin), member 1 (UniProt P01009)
[26] = target: similar to CXYorf1-related protein (Homo sapiens)
[27] = target: similar to KIAA2018 protein (Homo sapiens) (UniProt Q68DE3)
[28] = target: similar to zinc finger, CW-type with PWWP domain 1 (Homo sapiens)
[29] = target: stress 70 protein chaperone, microsome-associated, 60 kDa (Homo sapiens) (UniProt P48723)
Chain of stress 70 protein chaperone, microsome-associated, 60 kDa (Homo sapiens) (P48723 23-471 limits assumed): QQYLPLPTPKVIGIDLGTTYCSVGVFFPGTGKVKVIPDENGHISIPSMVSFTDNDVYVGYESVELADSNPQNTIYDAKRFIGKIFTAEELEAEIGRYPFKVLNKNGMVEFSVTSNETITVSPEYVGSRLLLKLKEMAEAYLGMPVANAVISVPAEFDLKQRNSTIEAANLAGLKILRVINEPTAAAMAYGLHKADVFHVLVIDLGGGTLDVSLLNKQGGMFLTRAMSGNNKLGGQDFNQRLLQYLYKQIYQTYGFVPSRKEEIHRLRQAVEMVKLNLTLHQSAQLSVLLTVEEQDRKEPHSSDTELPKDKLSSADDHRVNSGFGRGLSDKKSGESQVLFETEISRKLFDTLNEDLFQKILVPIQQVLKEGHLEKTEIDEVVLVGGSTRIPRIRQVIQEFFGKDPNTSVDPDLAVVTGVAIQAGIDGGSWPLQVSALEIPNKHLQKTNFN

[30] = target: tumor protein p53 binding protein, 2 (Homo sapiens) (UniProt Q13625)
[31] = target: v-raf murine sarcoma 3611 viral oncogene homolog 1 (Homo sapiens) (UniProt P10398)
[32] = target: very large G-protein coupled receptor 1 (Homo sapiens) (UniProt Q8WXG9)

Chain of GroEL having Aspartate 490 substituted with Cysteine, biotinylated and conjugated onto NeutrAvidin beads (A1AJ51 whole entry D490C): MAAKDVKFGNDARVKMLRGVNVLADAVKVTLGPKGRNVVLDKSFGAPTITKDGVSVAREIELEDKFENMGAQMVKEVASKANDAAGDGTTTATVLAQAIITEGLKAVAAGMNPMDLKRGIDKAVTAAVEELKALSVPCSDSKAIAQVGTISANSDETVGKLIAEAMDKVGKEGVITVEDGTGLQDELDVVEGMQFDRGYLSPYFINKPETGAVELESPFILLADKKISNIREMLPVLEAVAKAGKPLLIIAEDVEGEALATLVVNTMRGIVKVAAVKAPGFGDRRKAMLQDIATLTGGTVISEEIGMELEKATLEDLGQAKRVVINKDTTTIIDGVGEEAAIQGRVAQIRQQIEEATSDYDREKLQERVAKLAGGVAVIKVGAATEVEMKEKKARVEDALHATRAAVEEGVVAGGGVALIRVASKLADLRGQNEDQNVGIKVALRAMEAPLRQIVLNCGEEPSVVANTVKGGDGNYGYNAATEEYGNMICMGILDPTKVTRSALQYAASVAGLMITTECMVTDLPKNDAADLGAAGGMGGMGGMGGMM

With “GroEL having Aspartate 490 substituted with Cysteine, biotinylated and conjugated onto NeutrAvidin beads (from UniProt A1AJ51 1-548)” the Spectrum Count [1] was 9 count, the Spectrum Count [2] was 13 count and the Spectrum Count [3] was 12 count. The Spectrum Count (KIAA0317 (Homo sapiens)) was 10 count, the Spectrum Count [4] was 13 count and the Spectrum Count [5] was 13 count. The Spectrum Count [6] was 11 count, the Spectrum Count [7] was 10 count and the Spectrum Count [8] was 13 count. It also gave a Spectrum Count [9] of 26 count, a Spectrum Count [10] of 16 count and a Spectrum Count [11] of 10 count. It also gave a Spectrum Count [12] of 9 count, a Spectrum Count [13] of 19 count and a Spectrum Count [14] of 11 count. For the same substance, the Spectrum Count [15] was 10 count, the Spectrum Count [16] was 11 count and the Spectrum Count [17] was 10 count. The Spectrum Count [18] was 9 count, the Spectrum Count [19] was 13 count and the Spectrum Count [20] was 10 count. For the same substance, the Spectrum Count (keratin 1 (Homo sapiens)) was 16 count, the Spectrum Count [21] was 16 count and the Spectrum Count [22] was 14 count. It also gave a Spectrum Count [23] of 22 count, a Spectrum Count [24] of 9 count and a Spectrum Count [25] of 20 count. The Spectrum Count [26] was 110 count, the Spectrum Count [27] was 12 count and the Spectrum Count [28] was 16 count. For the same substance, the Spectrum Count [29] was 12 count, the Spectrum Count [30] was 9 count and the Spectrum Count [31] was 13 count. The Spectrum Count [32] was 14 count.
